{"source": "patent US20240269196A1", "about": "“RESPIRATORY TREATMENTS USING SALMONID OIL COMPOSITIONS” (Hofseth Biocare ASA, priority 2020, published 2024)", "molecules": {"B1": {"name": "Apolipoprotein A-IV (protein, UniProt P06727 21-396, looked up)", "Apolipoprotein A-IV": "EVSADQVATVMWDYFSQLSNNAKEAVEHLQKSELTQQLNALFQDKLGEVNTYAGDLQKKLVPFATELHERLAKDSEKLKEEIGKELEELRARLLPHANEVSQKIGDNLRELQQRLEPYADQLRTQVSTQAEQLRRQLTPYAQRMERVLRENADSLQASLRPHADELKAKIDQNVEELKGRLTPYADEFKVKIDQTVEELRRSLAPYAQDTQEKLNHQLEGLTFQMKKNAEELKARISASAEELRQRLAPLAEDVRGNLRGNTEGLQKSLAELGGHLDQQVEEFRRRVEPYGENFNKALVQQMEQLRQKLGPHAGDVEGHLSFLEKDLRDKVNSFFSTFKEKESQDKTLSLPELEQQQEQQQEQQQEQVQMLAPLES", "notes": "positive control protein"}}, "key": {"[1]": {"tested_on": "allergic human eosinophils", "experiment": "Apoptosis assay (Annexin V-FITC, flow cytometry)", "assay_type": "cell-based", "settings": "Example 1; 3 μg/mL ApoA-IV; 18 hr incubation; IL-5 50 pM", "method": "(§1) The allergic human eosinophils were placed in RPMI 1640 medium supplemented with IL-5 (50 pM), 1% FBS and PenStrep in the presence of 3 μg/mL ApoA-IV (positive control), 100 μg/mL SO, and formulation vehicle (negative control). Aliquots were removed after 18 hr incubation, washed twice in PBS, and resuspended in binding buffer. The eosinophil cells were stained using the Annexin V-FITC Apoptosis Detection Kit I, (Sigma Aldrich) and immediately analyzed by flow cytometry. Each sample was acquired for 1 min, and the total number of eosinophils gated on a forward scatter/side scatter plot and the percentage of live cells (annexin Vneg) and apoptotic cells (annexin Vpos) was recorded.\nas §1, with “of” for “of 3 μg/mL ApoA-IV (positive control),”, “SO, heat, acid and base treated SO, krill oil, standard 18/12 fish oil,” for “SO,”, “Aliquots were removed after 18 hr incubation, washed twice in PBS, and resuspended in binding buffer.” left out, “recorded. […]” for “recorded.”"}, "[2]": {"tested_on": "eosinophils in healthy donor PMNL samples", "experiment": "Shape change assay: CCL11-stimulated eosinophil shape change in PMNL, flow cytometry (FSC)", "assay_type": "cell-based, human", "settings": "Example 1, 3 μg/mL ApoA-IV pretreatment 30 min", "method": "(§2) PMNL samples were pretreated with 3 μg/mL ApoA-IV (positive control), 100 μg/mL SO, and formulation vehicle (negative control) for 30 minutes and stimulated with serial dilutions of CCL11 for 20 minutes at 37° C. Shape change was monitored by flow cytometry as the increase of forward scatter (FSC) and was expressed as percent of the vehicle response. Note, eosinophils are distinguishable from neutrophils by their SSC properties and autofluorescence.\n(§3) The chemotactic factor, CCL11, was used to prime eosinophils to immediately prepare for diapedesis through the endothelium by rearranging their cytoskeleton. This morphological change was detected by flow cytometry as an increase in the forward scatter properties of these cells. The effects of SO at 100 μg/mL was studied and compared to the known effect of 3 μg/mL ApoA-IV on eosinophil shape change in healthy donor PMNL samples. The pretreated samples were stimulated with serial dilutions of CCL11, and shape change was monitored by flow cytometry.\nas §2, with “with” for “with 3 μg/mL ApoA-IV (positive control),”, “SO, heat, acid and base treated SO, krill oil, standard 18/12 fish oil,” for “SO,”, “Eosinophils were” for “Note, eosinophils are”, “auto-fluorescence.” for “autofluorescence.”\nas §3, with “various processing treatments on SO, krill oil and standard 18/12 fish oil” for “known effect of 3 μg/mL ApoA-IV”"}, "[3]": {"tested_on": "House Dust Mite (HDM) extract-induced murine asthma model", "experiment": "House Dust Mite (HDM) extract-induced murine asthma model: BAL fluid and spleen cellularity", "assay_type": "in vivo, mice", "settings": "5 μg/animal, day 7 to day 14, N=5; for Percent eosinophil in spleen tissue (Mean): spleen on day 15", "method": "For this purpose, normal saline (NS) was used as a vehicle control and Apolipoprotein A-IV (ApoA-IV) was used as a positive control, respectively. The study involved induction of asthmatic condition in mice using HDM extract and simultaneous evaluation of the effects of OmeGo Salmon oil (CARDIO softgels; 20 or 60 μg/animal) and ApoA-IV (5 μg/animal; as a positive control) on cosinophil modulation in mice.\nOn day 1, all 20 mice were anesthetized and sensitized intranasally with 1 μg HDM protein in 40 μL PBS. From day 7 to day 11, all 20 mice were challenged by daily intranasal application of 10 μg HDM protein in 40 μL PBS. Mice were randomly divided into four groups with five mice in each group for differential treatment from day 7 to day 14. From day 7 to day 14, each animal in the first group (G1) received 100 μL NS; each animal in the second group (G2) received 20 μg CARDIO in 100 μL NS; each animal in the third group (G3) received 60 μg CARDIO in 100 μL NS; and each animal in the fourth group (G4) received 5 μg ApoA-IV in 100 μL NS.\nThe Broncho-Alveolar Lavage (BAL) fluid and spleen were collected from all 20 mice on day 15, and cellularity of the collected samples were analyzed by flow cytometry."}, "[4]": {"tested_on": "CD11b on eosinophils (PMNL surface)", "experiment": "CD11b (integrin) upregulation assay, CCL11-stimulated PMNL, flow cytometry", "assay_type": "cell-based, human", "settings": "Example 1, 3 μg/mL ApoA-IV pretreatment 30 min", "method": "(§4) PMNL samples were pretreated with 3 μg/mL ApoA-IV (positive control), 100 μg/mL SO, and formulation vehicle (negative control) for 30 minutes and incubated with serial dilutions of CCL11 for 30 minutes at 37° C. Samples were stained with anti-CD16-PE-Cy5 and anti-CD11b-PE (ICRF44) antibodies. Eosinophils were identified as CD16 negative cells. CD11b upregulation was analyzed by flow cytometry.\nA precondition for eosinophil migration is upregulation of adhesion molecules such as the αmβ2 integrins (CD11b/CD18).\nas §4, with “with” for “with 3 μg/mL ApoA-IV (positive control),”, “SO, heat, acid and base treated SO, krill oil, standard 18/12 fish oil,” for “SO,”"}}, "data": [{"molecule": "B1", "values": [{"measurement": "percentage of apoptotic cells (annexin Vpos)", "setting": "[1]", "value": "60±3.8", "unit": "%"}, {"measurement": "percentage of live cells (annexin Vneg)", "setting": "[1]", "value": "31.5±2.3", "unit": "%"}, {"measurement": "Shape change (100% as baseline) of PMNL", "setting": "[2]; CCL11 0.05 nM", "value": 100, "unit": "%"}, {"measurement": "Shape change (100% as baseline) of PMNL", "setting": "[2]; CCL11 0.10 nM", "value": 103, "unit": "%"}, {"measurement": "Shape change (100% as baseline) of PMNL", "setting": "[2]; CCL11 0.25 nM", "value": 105, "unit": "%"}, {"measurement": "Shape change (100% as baseline) of PMNL", "setting": "[2]; CCL11 0.50 nM", "value": 106, "unit": "%"}, {"measurement": "Shape change (100% as baseline) of PMNL", "setting": "[2]; CCL11 0.75 nM", "value": 108, "unit": "%"}, {"measurement": "Shape change (100% as baseline) of PMNL", "setting": "[2]; CCL11 1.00 nM", "value": 109, "unit": "%"}, {"measurement": "Shape change (100% as baseline) of PMNL", "setting": "[2]; CCL11 2.50 nM", "value": 109, "unit": "%"}, {"measurement": "Shape change (100% as baseline) of PMNL", "setting": "[2]; CCL11 5.00 nM", "value": 107, "unit": "%"}, {"measurement": "Cell count in BAL fluid: Eosinophil count (Mean)", "setting": "[3]; BAL on day 15", "value": 28220}, {"measurement": "Percent eosinophil in spleen tissue (Mean)", "setting": "[3]", "value": 2.34, "unit": "%"}, {"measurement": "Percent eosinophil in spleen tissue (Mean)", "setting": "[3]; listed as ApoA-IV", "value": "significantly decreased"}, {"measurement": "CB11b change (100% as baseline) on PMNL surface", "setting": "[4]; CCL11 0.01 nM", "value": 95, "unit": "%"}, {"measurement": "CB11b change (100% as baseline) on PMNL surface", "setting": "[4]; CCL11 0.50 nM", "value": 103, "unit": "%"}, {"measurement": "CB11b change (100% as baseline) on PMNL surface", "setting": "[4]; CCL11 1.00 nM", "value": 122, "unit": "%"}, {"measurement": "CB11b change (100% as baseline) on PMNL surface", "setting": "[4]; CCL11 2.50 nM", "value": 125, "unit": "%"}, {"measurement": "CB11b change (100% as baseline) on PMNL surface", "setting": "[4]; CCL11 5.00 nM", "value": 125, "unit": "%"}, {"measurement": "CB11b change (100% as baseline) on PMNL surface", "setting": "[4]; CCL11 10.00 nM", "value": 114, "unit": "%"}]}]}
